According to patent publication US20110130328A1 (THE ADMINISTRATORS OF THE TULANE EDUCATIONAL FUND, published 2011):
No end group written: not given here.

B1: peptide 54 (18 mer of E1 of HCV strain H77) (peptide)
peptide: SSGLYHVTNDCPNSSIVY
B2: peptide 73 (18 mer of E1 of HCV strain H77) (peptide)
peptide: AALVVAQLLRIPQAIMDM
B3: peptide 79 (18 mer of E1 of HCV strain H77) (peptide)
peptide: LVVLLLFAGVDAETHVTG
B4: peptide 65 (18 mer of E1 of HCV strain H77) (peptide)
peptide: ALYVGDLCGSVFLVGQLF
modifications: not fully specified
B5: peptide 72 (18 mer of E1 of HCV strain H77) (peptide)
peptide: MMNWSPTAALVVAQLLRI
B6: peptide 64 (18 mer of E1 of HCV strain H77) (peptide)
peptide: GSATLCSALYVGDLCGSV
B7: peptide 53 (18 mer of E1 of HCV strain H77) (peptide)
peptide: SAYQVRNSSGLYHVTNDC
B8: peptide 67 (18 mer of E1 of HCV strain H77) (peptide)
peptide: GQLFTFSPRHHWTTQDCN
B9: peptide 55 (18 mer of E1 of HCV strain H77) (peptide)
peptide: TNDCPNSSVVYEAADAIL
B10: peptide 68 (18 mer of E1 of HCV strain H77) (peptide)
peptide: PRHHWTTQDCNCSIYPGH
B11: peptide 76 (18 mer of E1 of HCV strain H77) (peptide)
peptide: AHWGVLAGIKYFSMVGNW
B12: peptide 61 (18 mer of E1 of HCV strain H77) (peptide)
peptide: VATRDGKLPTTQLRRHID
B13: peptide 74 (18 mer of E1 of HCV strain H77) (peptide)
peptide: LLRIPQAIMDMIAGAHWG
B14: peptide 62 (18 mer of E1 of HCV strain H77) (peptide)
peptide: LPTTQLRRHIDLLVGSAT
B15: peptide 56 (18 mer of E1 of HCV strain H77) (peptide)
peptide: SIVYEAADAILHTPGCVP
B16: peptide 69 (18 mer of E1 of HCV strain H77) (peptide)
peptide: QDCNCSIYPGHITGHRMA
modifications: not fully specified; cysteine pairing not given here
B17: peptide 58 (18 mer of E1 of HCV strain H77) (peptide)
peptide: GCVPCVREGNASRCWVAV
B18: peptide 52 (18 mer of E1 of HCV strain H77) (peptide)
peptide: SCLTVPASAYQVRNSSGL
B19: peptide 78 (18 mer of E1 of HCV strain H77) (peptide)
peptide: VGNWAKVLVVLLLFAGVD
B20: peptide 63 (18 mer of E1 of HCV strain H77) (peptide)
peptide: RHIDLLVGSATLCSALYV
B21: peptide 75 (18 mer of E1 of HCV strain H77) (peptide)
peptide: IMDMIAGAHWGVLAGIKY
B22: peptide 77 (18 mer of E1 of HCV strain H77) (peptide)
peptide: GIKYFSMVGNWAKVLVVL
B23: peptide 66 (18 mer of E1 of HCV strain H77) (peptide)
peptide: CGSVFLVGQLFTFSPRHH
B24: peptide 57 (18 mer of E1 of HCV strain H77) (peptide)
peptide: DAILHTPGCVPCVREGNA

Target: envelope glycoproteins E1 and E2 of the H77 strain of HCV, on HIV-core pseudotype virions (hepatitis C virus strain H77, UniProt P27958)
Test: cell-based or functional assay

| Binder | Percent Inhibition of infection by the H77-E1E2 pseudotype (luciferase), peptide at about 25 µM [%] | Percent Inhibition of infection by the H77-E1E2 pseudotype (luciferase), peptide marked by asterisk: actual concentration 10 µM or less [%] |
| --- | --- | --- |
| B1 | 99.9 | – |
| B2 | 11.5 | – |
| B3 | 10.6 | – |
| B4 | – | 22.9 |
| B5 | 33.4 | – |
| B6 | 0.55 | – |
| B7 | 0.23 | – |
| B8 | 43.2 | – |
| B9 | 1.12 | – |
| B10 | 31.3 | – |
| B11 | 15.3 | – |
| B12 | -30.8 | – |
| B13 | 71.1 | – |
| B14 | -1.96 | – |
| B15 | 42.3 | – |
| B16 | – | -73.1 |
| B17 | -4.42 | – |
| B18 | -17.2 | – |
| B19 | – | -21.1 |
| B20 | 49.1 | – |
| B21 | 0.32 | – |
| B22 | 50.4 | – |
| B23 | 79.5 | – |
| B24 | -49.4 | – |
